Test results from patent US7423125.
Substitutions are numbered along the chain they refer to. Numbers in names are those of the source. Values belong to the binder of their own block, whether it stands above or below them.

Experiments:
[1] = target: T1, Flt4 extracellular domain with C-terminal 6×His tag (Flt4EC), baculovirus-produced (human, UniProt P35916 25-775); assay: depletion of conditioned medium on Flt4EC-Sepharose
T1 construct: extracellular domain; also called Flt4EC-Sepharose
T1 sequence: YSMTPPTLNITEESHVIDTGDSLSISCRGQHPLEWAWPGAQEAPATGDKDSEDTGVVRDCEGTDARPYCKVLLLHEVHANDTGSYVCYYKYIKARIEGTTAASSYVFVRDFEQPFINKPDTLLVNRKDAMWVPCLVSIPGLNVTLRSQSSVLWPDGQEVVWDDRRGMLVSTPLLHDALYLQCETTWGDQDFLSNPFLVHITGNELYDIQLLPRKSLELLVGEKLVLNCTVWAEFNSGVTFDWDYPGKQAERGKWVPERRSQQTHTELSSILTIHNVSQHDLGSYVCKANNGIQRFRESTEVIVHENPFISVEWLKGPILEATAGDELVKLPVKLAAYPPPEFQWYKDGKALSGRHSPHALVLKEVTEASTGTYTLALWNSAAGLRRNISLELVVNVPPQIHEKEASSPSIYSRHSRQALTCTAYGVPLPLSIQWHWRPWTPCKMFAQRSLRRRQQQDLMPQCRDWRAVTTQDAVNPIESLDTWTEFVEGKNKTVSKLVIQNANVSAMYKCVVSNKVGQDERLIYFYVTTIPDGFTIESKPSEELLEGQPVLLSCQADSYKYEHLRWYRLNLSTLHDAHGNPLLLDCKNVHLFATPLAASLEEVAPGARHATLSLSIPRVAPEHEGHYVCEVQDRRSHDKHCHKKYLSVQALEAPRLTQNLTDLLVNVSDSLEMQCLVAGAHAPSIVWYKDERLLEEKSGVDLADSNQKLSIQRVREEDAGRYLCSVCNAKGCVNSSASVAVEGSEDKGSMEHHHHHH

[2] = target: T2, KDR (VEGFR-2) expressed on porcine aortic endothelial cells (UniProt P35968 20-1356, limits assumed); assay: competition with 125I-VEGF-CΔNΔCHis on PAE/VEGFR-2 cells
T2 construct: whole, on cells; also called KDR/Flk-1; PAE-KDR cells
T2 sequence (P35968 20-1356 limits assumed): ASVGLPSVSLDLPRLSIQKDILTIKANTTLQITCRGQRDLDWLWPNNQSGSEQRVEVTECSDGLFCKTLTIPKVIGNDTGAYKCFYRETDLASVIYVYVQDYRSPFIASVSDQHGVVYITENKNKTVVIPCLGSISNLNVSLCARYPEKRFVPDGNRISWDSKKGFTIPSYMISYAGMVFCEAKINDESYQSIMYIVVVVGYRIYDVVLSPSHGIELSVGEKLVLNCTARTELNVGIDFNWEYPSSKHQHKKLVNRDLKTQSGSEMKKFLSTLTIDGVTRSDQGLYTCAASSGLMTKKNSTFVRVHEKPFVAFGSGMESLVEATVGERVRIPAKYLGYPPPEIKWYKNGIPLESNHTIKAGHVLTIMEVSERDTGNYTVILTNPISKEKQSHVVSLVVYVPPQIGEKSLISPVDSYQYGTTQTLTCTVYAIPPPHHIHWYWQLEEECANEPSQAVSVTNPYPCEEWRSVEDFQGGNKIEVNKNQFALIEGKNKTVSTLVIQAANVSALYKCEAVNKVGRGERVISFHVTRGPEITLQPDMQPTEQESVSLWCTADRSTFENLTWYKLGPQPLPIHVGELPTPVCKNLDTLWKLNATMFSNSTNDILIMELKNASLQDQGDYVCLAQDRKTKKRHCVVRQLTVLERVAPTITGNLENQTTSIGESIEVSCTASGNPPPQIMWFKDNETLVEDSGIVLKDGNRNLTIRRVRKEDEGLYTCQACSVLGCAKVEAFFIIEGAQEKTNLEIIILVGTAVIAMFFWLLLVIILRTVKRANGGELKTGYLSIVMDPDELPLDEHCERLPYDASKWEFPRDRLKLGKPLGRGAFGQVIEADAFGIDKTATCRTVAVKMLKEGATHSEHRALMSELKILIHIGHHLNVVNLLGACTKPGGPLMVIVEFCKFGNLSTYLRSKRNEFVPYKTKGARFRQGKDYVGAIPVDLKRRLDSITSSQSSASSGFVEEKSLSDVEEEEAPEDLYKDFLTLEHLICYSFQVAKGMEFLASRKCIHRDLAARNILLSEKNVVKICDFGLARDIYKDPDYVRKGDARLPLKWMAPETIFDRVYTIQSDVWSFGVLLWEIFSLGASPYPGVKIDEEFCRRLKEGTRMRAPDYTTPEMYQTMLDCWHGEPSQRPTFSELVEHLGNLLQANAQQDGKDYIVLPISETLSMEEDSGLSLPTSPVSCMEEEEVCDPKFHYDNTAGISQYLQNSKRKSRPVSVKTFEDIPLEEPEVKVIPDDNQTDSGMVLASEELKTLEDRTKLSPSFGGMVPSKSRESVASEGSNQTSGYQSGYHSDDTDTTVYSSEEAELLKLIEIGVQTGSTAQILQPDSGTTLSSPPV
Protocol: (§1) To study receptor binding, PAE/VEGFR-2 and PAE/VEGFR-3 cells were seeded into 24-well tissue culture plates (Nunclon), which had been coated with 2% gelatin in PBS. […] The binding was allowed to proceed at room temperature for 90 minutes. The plates were then transferred onto ice and washed three times with ice-cold PBS containing 0.1% BSA. The cells were then lysed in 1 M NaOH, the lysates were collected, and the radioactivity was measured using a γ-counter.

[3] = target: the molecule itself; assay: homodimer formation, chemical crosslinking
[4] = target: T3, Flt4 receptor tyrosine kinase (VEGFR-3) expressed on cells (human, UniProt P35916 25-1363); assay: Scatchard analysis with 125I-labelled ligand
T3 construct: whole, on cells; also called LTRFlt4l; NIH 3T3-Flt4 cells
Protocol: as §1

[5] = target: T2, KDR (VEGFR-2) expressed on porcine …; assay: Scatchard analysis with 125I-labelled ligand
Protocol: as §1

chemical crosslinking = target: the molecule itself; assay: chemical crosslinking
[6] = target: T4, VEGFR-3EC-Ig (seven Ig loops of the VEGFR-3 extracellular domain fused to an immunoglobulin heavy chain … (UniProt P35916 25-775, limits assumed)); assay: receptor binding studies
T4 construct: domain: seven Ig loops of the extracellular domain; also called VEGFR-3EC domain; not shown: immunoglobulin heavy chain constant region, not specified
T4 sequence (looked up): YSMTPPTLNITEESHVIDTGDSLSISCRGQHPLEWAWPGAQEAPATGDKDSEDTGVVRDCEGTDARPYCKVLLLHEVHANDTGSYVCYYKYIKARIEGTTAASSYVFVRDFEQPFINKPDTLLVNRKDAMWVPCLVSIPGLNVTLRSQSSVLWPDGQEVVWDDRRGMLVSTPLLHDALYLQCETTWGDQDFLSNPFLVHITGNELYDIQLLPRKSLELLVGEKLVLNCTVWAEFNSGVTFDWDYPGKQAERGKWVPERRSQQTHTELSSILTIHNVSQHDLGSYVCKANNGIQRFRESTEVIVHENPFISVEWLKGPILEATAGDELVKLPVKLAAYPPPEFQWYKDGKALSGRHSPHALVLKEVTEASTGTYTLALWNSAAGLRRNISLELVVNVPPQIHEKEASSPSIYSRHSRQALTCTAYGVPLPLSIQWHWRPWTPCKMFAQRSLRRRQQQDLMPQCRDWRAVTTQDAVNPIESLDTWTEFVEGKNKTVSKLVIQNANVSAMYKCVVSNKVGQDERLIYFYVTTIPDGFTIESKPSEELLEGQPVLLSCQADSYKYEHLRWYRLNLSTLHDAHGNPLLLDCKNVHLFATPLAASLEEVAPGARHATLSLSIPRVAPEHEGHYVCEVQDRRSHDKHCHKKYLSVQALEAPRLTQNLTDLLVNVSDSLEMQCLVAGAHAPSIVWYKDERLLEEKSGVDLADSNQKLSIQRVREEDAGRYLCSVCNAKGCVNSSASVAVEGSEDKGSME

[7] = target: T5, VEGFR-2EC-Ig (three Ig loops of the VEGFR-2 extracellular domain fused to an immunoglobulin heavy chain … (UniProt P35968 20-327, limits assumed)); assay: receptor binding studies
T5 construct: domain: three Ig loops of the extracellular domain; also called VEGFR-2EC domain; not shown: immunoglobulin heavy chain constant region, not specified
T5 sequence (P35968 20-327 limits assumed): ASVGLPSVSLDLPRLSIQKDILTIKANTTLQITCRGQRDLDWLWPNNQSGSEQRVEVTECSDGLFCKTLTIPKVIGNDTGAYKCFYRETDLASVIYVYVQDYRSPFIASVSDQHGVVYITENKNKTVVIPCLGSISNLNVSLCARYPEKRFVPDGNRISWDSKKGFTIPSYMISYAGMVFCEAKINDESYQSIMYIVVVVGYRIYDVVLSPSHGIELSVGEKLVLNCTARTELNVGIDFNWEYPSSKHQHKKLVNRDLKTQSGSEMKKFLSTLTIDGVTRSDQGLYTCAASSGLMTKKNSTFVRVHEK

[8] = target: T5, VEGFR-2EC-Ig (three Ig loops of the …); assay: pull-down of 35S-labelled protein with VEGFR-2EC-Ig
Protocol: An aliquot of the transfected cells were metabolically labelled for 6 hours with 100 microcuries/ml of the PRO-MIX™ L-[^35S] in vitro cell labelling mix (Amersham).

binding result [1]: binds
B1: Flt4 ligand of about 23 kD from PC-3 cell conditioned medium (naturally processed VEGF-C) (ligand)
chain: TEETIKFAAAHYNTEILKSIDNEWRKTQCMPREVCIDVGKEFGVATNTFFKPPCVSVYRCGGCCNSEGLQCMNTSTSYLSKTLFEITVPLSQGPKPVTISFANHTSCRCMSKLDVYRQVHSIIRR
notes: also called 23 kD polypeptide; 21-23 kD form (PC-3)

binding result [2]: binds
B2: VEGF-C R226,227S (ligand)
chain: FESGLDLSDAEPDAGEATAYASKDLEEQLRSVSSVDELMTVLYPEYWKMYKCQLRKGGWQHNREQANLNSRTEETIKFAAAHYNTEILKSIDNEWRKTQCMPREVCIDVGKEFGVATNTFFKPPCVSVYRCGGCCNSEGLQCMNTSTSYLSKTLFEITVPLSQGPKPVTISFANHTSCRCMSKLDVYRQVHSIISSSLPATLPQCQAANKTCPTNYMWNNHICRCLAQEDFMFSSDAGDDSTDGFHDICGPNKELDEETCQCVCRAGLRPASCGPHKELDRNSCQCVCKNKLFPSQCGANREFDENTCQCVCKRTCPRNQPLNPGKCACECTESPQKCLLKGKKFHHQTCSCYRRPCTNRQKACEPGFSYSEEVCRCVPSYWKRPQMS
notes: The C-terminal cleavage site is destroyed; N-terminal processing may still occur; also called non-processed VEGF-C R226,227S

Kd [4]: 0.135 nM
Kd [5]: 0.41 nM
B3: VEGF-C ΔNΔCHis (ligand)
chain: TEETIKFAAAHYNTEILKSIDNEWRKTQCMPREVCIDVGKEFGVATNTFFKPPCVSVYRCGGCCNSEGLQCMNTSTSYLSKTLFEITVPLSQGPKPVTISFANHTSCRCMSKLDVYRQVHSIIHHHHHH
notes: the yeast protein was iodinated as tracer; also called VEGF-C ΔCΔNHis; recombinantly-matured VEGF-C
binding result [3]: binds

binding result [6]: no binding
binding result [7]: no binding
B4: VEGF-CΔNΔCHis C156,165S (ligand)
chain: B3 chain with C54S, C63S
notes: also called C156,165S form
binding result (chemical crosslinking): no binding

binding result [6]: no binding
binding result [7]: no binding
B5: VEGF-CΔNΔCHis C165S (ligand)
chain: B3 chain with C63S
notes: also called C165S form
binding result (chemical crosslinking): no binding

binding result [8]: no binding
binding result [2]: no binding
B6: VEGF-CΔNΔCHis C156S (ligand)
chain: B3 chain with C54S
notes: also called VEGF-CΔNΔCH is R156S (as printed once); VEGF-C ΔNΔC156S
binding result [3]: binds
